US20200024330A1

What was measured:
Assay in all cases: cell-based or functional assay
[1] = molecular target: HIV-1 Env of isolate MGRM-AG-003 (CRF_AG), on pseudovirus (HIV-1)
[2] = molecular target: HIV-1 Env of isolate MGRM-F1-023 (subtype F), on pseudovirus (HIV-1)
[3] = molecular target: HIV-1 Env of isolate 93TH305 (pseudovirus) (HIV-1 isolate 93TH305, subtype B)
[4] = molecular target: HIV-1 Env of isolate MGRM-D-011 (HIV-1)
[5] = molecular target: HIV-1 Env of isolate MGRM-D-003 (HIV-1)
[6] = molecular target: HIV-1 Env of isolate 92UG024 (HIV-1)
[7] = molecular target: HIV-1 Env of isolate MGRM-C-020 (HIV-1)
[8] = molecular target: HIV-1 Env of isolate MGRM-D-029 (subtype D), on pseudovirus (HIV-1)
[9] = molecular target: HIV-1 Env of isolate 92BR020 (pseudovirus) (HIV-1 isolate 92BR020, subtype B)
[10] = molecular target: HIV-1 Env of isolate MGRM-C-014 (HIV-1)
[11] = molecular target: HIV-1 JR-CSF Env F468A (HIV-1 (isolate JR-CSF)) (UniProt P20871)
[12] = molecular target: HIV-1 JR-CSF Env R480A (HIV-1 (isolate JR-CSF)) (UniProt P20871)
[13] = molecular target: HIV-1 Env of isolate MGRM-F1-017 (subtype F), on pseudovirus (HIV-1)
[14] = molecular target: HIV-1 Env of isolate MGRM-A-012 (clade A), on pseudovirus (HIV-1)
[15] = molecular target: HIV-1 Env of isolate MGRM-A-011 (clade A), on pseudovirus (HIV-1)
[16] = molecular target: HIV-1 Env of isolate 93UG077 (HIV-1)
[17] = molecular target: HIV-1 Env of isolate MGRM-D-019 (HIV-1)
[18] = molecular target: HIV-1 Env of isolate MGRM-C-010 (HIV-1)
[19] = molecular target: HIV-1 Env of isolate MGRM-F1-018 (subtype F), on pseudovirus (HIV-1)
[20] = molecular target: HIV-1 Env of isolate TRJ04551.58 (HIV-1)
[21] = molecular target: HIV-1 JR-CSF Env N478A (HIV-1 (isolate JR-CSF)) (UniProt P20871)
[22] = molecular target: HIV-1 Env of isolate 92WR009 (HIV-1)
[23] = molecular target: HIV-1 NL43 envelope protein (Env) on pseudovirus (HIV-1)
[24] = molecular target: HIV-1 Env of isolate MGRM-D-013 (clade D) (HIV-1)
[25] = molecular target: HIV-1 Env of isolate MGRM-G-027 (clade G pseudovirus) (HIV-1)
[26] = molecular target: HIV-1 MGRM-F1-012 Env (pseudovirus) (HIV-1)
[27] = molecular target: HIV-1 MGRM-C-012 Env (HIV-1)
[28] = molecular target: HIV-1 94KE105 envelope glycoprotein (Env) (HIV-1)
[29] = molecular target: HIV-1 Env of pseudovirus CAAN.A2 (Acute), clade B (HIV-1)
[30] = molecular target: HIV-1 CMU02 envelope protein (Env) on pseudovirus (HIV-1)
[31] = molecular target: HIV-1 APV-6 envelope protein (Env) on pseudovirus (HIV-1)
[32] = molecular target: HIV-1 MGRM-C-008 Env (HIV-1)
[33] = molecular target: HIV-1 APV6 envelope glycoprotein (Env) on pseudovirus (HIV-1)

Sequence of 1443_C16 (PG16) (TCN-116) (antibody) (VH): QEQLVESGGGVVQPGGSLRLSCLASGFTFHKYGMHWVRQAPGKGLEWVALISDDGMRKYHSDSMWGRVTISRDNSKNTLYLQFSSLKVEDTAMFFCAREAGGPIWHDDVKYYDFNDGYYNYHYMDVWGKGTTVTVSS
Sequence of 1443_C16 (PG16) (TCN-116) (antibody) (VL): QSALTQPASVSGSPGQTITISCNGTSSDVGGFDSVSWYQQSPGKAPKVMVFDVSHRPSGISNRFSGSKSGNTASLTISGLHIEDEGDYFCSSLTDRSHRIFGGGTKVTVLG

Substance | IC50, single-round pseudovirus neutralization [1] [µg/mL] | IC50, pseudovirus neutralization [2] [µg/mL] | IC50 (µg/mL) neutralization [3] [µg/mL] | IC50 [4] [µg/mL] | IC50 [5] [µg/mL] | IC50 [6] [µg/mL] | IC50 [7] [µg/mL] | IC50, pseudovirus neutralization [8] [µg/mL] | IC50 (µg/mL) neutralization [9] [µg/mL] | IC50 [10] [µg/mL] | neutralization IC50 [23] [µg/mL] | IC50 (µg/ml), pseudovirus neutralization [24] [µg/mL] | IC50 (µg/ml), pseudovirus neutralization [25] [µg/mL] | IC50 (µg/ml), pseudovirus neutralization [26] [µg/mL] | IC50 [27] [µg/mL] | IC50 (µg/ml), pseudovirus neutralization [28] [µg/mL] | IC50 (µg/ml), pseudovirus neutralization [29] [µg/mL] | neutralization IC50 [30] [µg/mL] | neutralization IC50 [31] [µg/mL] | IC50 [32] [µg/mL] | further results
5136_H01 (PGT-131) (antibody) | 2.92 | > 50 | 0.016 | 0.756 | 19.6 | > 50 | > 50 | > 50 | 6.16 | > 50 | – | – | – | – | – | – | – | – | – | – | Fold IC50 increase relative to wild-type [11]: 1.6 fold; Fold IC50 increase relative to wild-type [12]: 1.5 fold; IC50, pseudovirus neutralization [13]: > 50 µg/mL; IC50, single-round pseudovirus neutralization [14]: > 50 µg/mL; IC50, single-round pseudovirus neutralization [15]: > 50 µg/mL; neutralization IC50 [16]: > 50 µg/mL; IC50 [17]: > 50 µg/mL; IC50 [18]: > 50 µg/mL; IC50, pseudovirus neutralization [19]: > 50 µg/mL; IC50 [20]: 0.088 µg/mL; Fold IC50 increase relative to wild-type [21]: 1 fold; neutralization IC50 [22]: 3.12 µg/mL
4E10 (antibody) | – | – | – | – | – | – | – | – | – | – | 4.95 | 5.38 | 1.19 | 0.37 | 0.44 | 7.63 | 17.9 | 0.59 | 0.4 | 2.97 | –
5114_A19 (PGT-128) (antibody) | 34.8 | 0.007 | 0.006 | 0.007 | 0.019 | > 50 | 5.85 | > 50 | 0.009 | > 50 | – | – | – | – | – | – | – | – | – | – | Fold IC50 increase relative to wild-type [11]: 0.5 fold; Fold IC50 increase relative to wild-type [12]: 0.1 fold; IC50, pseudovirus neutralization [13]: 11.7 µg/mL; IC50, single-round pseudovirus neutralization [14]: 0.025 µg/mL; IC50, single-round pseudovirus neutralization [15]: > 50 µg/mL; neutralization IC50 [16]: 0.014 µg/mL; IC50 [17]: > 50 µg/mL; IC50 [18]: > 50 µg/mL; IC50, pseudovirus neutralization [19]: 0.023 µg/mL; IC50 [20]: 0.019 µg/mL; Fold IC50 increase relative to wild-type [21]: 0.8 fold; neutralization IC50 [22]: 0.812 µg/mL
5343_B08 (PGT-135) (antibody) | > 50 | 0.088 | > 50 | 23.5 | > 50 | 0.01 | > 50 | 30.8 | 0.073 | > 50 | – | – | – | – | – | – | – | – | – | – | Fold IC50 increase relative to wild-type [11]: 1.1 fold; Fold IC50 increase relative to wild-type [12]: 1.4 fold; IC50, pseudovirus neutralization [13]: 7.79 µg/mL; IC50, single-round pseudovirus neutralization [14]: > 50 µg/mL; IC50, single-round pseudovirus neutralization [15]: > 50 µg/mL; neutralization IC50 [16]: > 50 µg/mL; IC50 [17]: > 50 µg/mL; IC50 [18]: > 50 µg/mL; IC50, pseudovirus neutralization [19]: > 50 µg/mL; IC50 [20]: > 50 µg/mL; Fold IC50 increase relative to wild-type [21]: 0.7 fold; neutralization IC50 [22]: > 50 µg/mL
2F5 (antibody) | – | – | – | – | – | – | – | – | – | – | 2.41 | 2.12 | 0.28 | > 50 | > 50 | > 50 | 23.1 | 0.38 | 0.1 | > 50 | –
2G12 (antibody) | – | – | – | – | – | – | – | – | – | – | 0.75 | > 50 | > 50 | 1.81 | > 50 | 7.22 | > 50 | > 50 | 5.3 | > 50 | –
b12 (antibody) | – | – | – | – | – | – | – | – | – | – | 0.06 | > 50 | > 50 | > 50 | > 50 | > 50 | > 50 | 4.25 | > 25 | 1.51 | –
1443_C16 (PG16) (TCN-116) (antibody) | – | – | – | – | – | – | – | – | – | – | < 0.0025 | 0.11 | 0.01 | 0.003 | 0.48 | 6.13 | 8.83 | > 50 | 0.08 | > 50 | –
1495_C14 (PGC14) (antibody) | – | – | – | – | – | – | – | – | – | – | 0.373 | > 50 | > 50 | > 50 | > 50 | > 50 | > 50 | > 50 | 7.41 | > 50 | –
5147_N06 (PGT-130) (antibody) | 0.041 | 0.05 | 0.021 | 0.019 | 0.651 | > 50 | > 50 | > 50 | 1.4 | > 50 | – | – | – | – | – | – | – | – | – | – | Fold IC50 increase relative to wild-type [11]: 0.4 fold; Fold IC50 increase relative to wild-type [12]: 1 fold; IC50, pseudovirus neutralization [13]: > 50 µg/mL; IC50, single-round pseudovirus neutralization [14]: > 50 µg/mL; IC50, single-round pseudovirus neutralization [15]: > 50 µg/mL; neutralization IC50 [16]: 21.4 µg/mL; IC50 [17]: > 50 µg/mL; IC50 [18]: > 50 µg/mL; IC50, pseudovirus neutralization [19]: > 50 µg/mL; IC50 [20]: 0.023 µg/mL; Fold IC50 increase relative to wild-type [21]: 0.8 fold; IC50 (ug/ml), neutralizing activity [33]: > 10 µg/mL; neutralization IC50 [22]: 1.27 µg/mL
